Our source for the Kd and cpm bound specifically (0.26 pmoles [125I]α-actinin in 120 μl, no competitor) values is paper PMC2139825.

The Kd is the concentration at which binding is half-saturated.

The assay addresses bacterially expressed full-length chicken CRP1 (chicken) (UniProt P67966). Kind of assay: radioligand binding.
UniProt P67966, sequence (P67966 whole entry): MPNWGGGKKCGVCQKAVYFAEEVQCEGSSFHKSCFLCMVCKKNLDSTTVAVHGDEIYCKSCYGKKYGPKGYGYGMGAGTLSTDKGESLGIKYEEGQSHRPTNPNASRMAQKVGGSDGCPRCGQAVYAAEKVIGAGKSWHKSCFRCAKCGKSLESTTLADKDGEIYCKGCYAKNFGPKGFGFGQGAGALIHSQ

For “α-actinin (avian smooth muscle) (from UniProt P05094 1-893) (natural protein)”, the Kd amounted to 1.8 µM and the cpm bound specifically (0.26 pmoles [125I]α-actinin in 120 μl, no competitor) was 3080 cpm.
